This passage reports response (PLA dots per cell) results from publication PMC13598120.

For this test, the target named is BLM, endogenous, P54132. Put plainly: PLA (α-Flag + α-BLM). Conditions: chain shown with the change, U2OS cells, 2 h, read off a plot.

B1: Flag-tagged GNL3 (Flag-GNL3), wild type, Q9BVP2 143VVLEVL149 to 143VAAEAL149 (SIMm) (protein)
chain: MKRPKLKKASKRMTCHKRYKIQKKVREHHRKLRKEAKKRGHKKPRKDPGVPNSAPFKEALLREAELRKQRLEELKQQQKLDRQKELEKKRKLETNPDIKPSNVEPMEKEFGLCKTENKAKSGKQNSKKLYCQELKKVIEASDVAAEALDARDPLGCRCPQVEEAIVQSGQKKLVLILNKSDLVPKENLESWLNYLKKELPTVVFRASTKPKDKGKITKRVKAKKNAAPFRSEVCFGKEGLWKLLGGFQETCSKAIRVGVIGFPNVGKSSIINSLKQEQMCNVGVSMGLTRSMQVVPLDKQITIIDSPSFIVSPLNSSSALALRSPASIEVVKPMEAASAILSQADARQVVLKYTVPGYRNSLEFFTVLAQRRGMHQKGGIPNVEGAAKLLWSEWTGASLAYYCHPPTSWTPPPYFNESIVVDMKSGFNLEELEKNNAQSIRAIKGPHLANSILFQSSGLTNGIIEEKDIHEELPKRKERKQEEREDDKDSDQETVDEEVDENSSGMFAAEETGEALSEETTAGEQSTRSFILDKIIEEDDAYDFSTDYV
Regarding B1, the response (PLA dots per cell) (20 μM ETO, parent: est. 100) was 24 and the response (PLA dots per cell) (DMSO, parent: est. 13) was determined as 5.
